Laboratory results taken from US10088487B2, “Method for the quantitative characterization of amyloid and/or aggregating peptides and/or proteins in a sample” (Forschungszentrum Juelich GmbH, priority 2013, dated 2018).
Non-standard residues stand in square brackets, D forms with d. No end group written: not given here.

Columns and labels:
[1] = molecular target: T1, Aβ(1-42) oligomers (Homo sapiens, UniProt P05067); assay: Density gradient centrifugation combined with RP-HPLC: effect of active ingredient on size distribution of Aβ(1-42) aggregates; format: biochemical; conditions: for quantity of Aβ oligomers in fractions 4 to 6: co-incubation 40 min, vs control without active ingredient
T1 construct: 1 mg of lyophilized Aβ(1-42) (Bachem, Heidelberg); purchased Bachem, Heidelberg
T1 sequence (P05067 672-713): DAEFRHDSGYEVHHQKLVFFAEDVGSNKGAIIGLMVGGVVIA
Description: For the following examples of embodiments, only one ultracentrifuge and one HPLC system having a suitable separating column and a UV detector were required. In order to determine the reduction of the Aβ oligomer proportion in an aggregate mixture, pretreated and dried Aβ(1-42) peptide was dissolved in buffer and incubated until the greatest possible Aβ oligomer proportion was obtained. The active ingredient to be analyzed was then added to this oligomer-enriched sample.
1 mg of lyophilized Aβ(1-42) (Bachem, Heidelberg) was incubated, after being removed from the freezer, for 10 to 30 min at room temperature (RT) in order to equalize the temperature of the peptide pellet and of the surrounding environment and thus to avoid moisture condensing from the air. Thereafter, the Aβ peptide was dissolved in HFIP (1,1,1,3,3,3-hexafluoro-2-propanol) (Sigma-Aldrich, Taufkirchen) in a concentration of 1 mg/700 μl and incubated overnight at RT with shaking until full dissolution was achieved, in order to ensure that the Aβ(1-42) exists entirely as monomers at this point in time. The Aβ(1-42) was then aliquoted in an amount of 36 μg per Eppendorf vessel. To remove the HFIP, the aliquots were left to stand open under the extractor for approximately 30 min. The rotational vacuum concentrator (rotational vacuum concentrator RVC 2-18, Christ, Mainz-Mombach) was pre-cooled for approximately 30 min. The Aβ(1-42) aliquots were then dried for a further 30 min in the rotational vacuum concentrator so that the last HFIP residues could also evaporate off. The aliquoted, dried Aβ(1-42) was stored at −20° C. until use.
Prior to the experiment, one Aβ(1-42) aliquot was dissolved to 80 μM in 100 μl of 10 mM NaH2PO4/Na2HPO4 buffer (Sigma-Aldrich, Taufkirchen), pH 7.4 and incubated at RT for 6 h with shaking. The incubation time of 6 h was optimized for this specific Aβ from this specific company in order to ensure that the largest possible proportion of the Aβ exists as oligomers, so as to be able to measure the reduction thereof as unambiguously as possible. For other Aβ peptides from other manufacturers, the incubation time may vary and should/can be adapted accordingly.
Thereafter, the active ingredient candidate to be analyzed was added in a quantity of 10 or 20 μM. The co-incubation of the Aβ/active ingredient solution took place for 40 min at RT with continuous shaking. When no active ingredient was added (control), the Aβ solution was treated in the same way.
The samples were then layered onto a pre-formed density gradient (see Table 1). The gradient material used consisted of a 60% strength (w/v) iodixanol solution named Optiprep™ (Axis-Shield, Oslo, Norway). It is a dimeric compound of iohexol having the systematic name 5,5-[(2-hydroxy-1,3-propanediyl)-bis(acetylimino)]bis-[N,N′-bis(2,3-hydroxypropyl)-2,4,6-triiodobenzenedicarboxamide]. […]
The non-linear density gradient was centrifuged at 4° C. and 259,000×g in a TLS-55 swing-out rotor (Beckman-Coulter, Palo Alto, USA) for 3 h in a TL 100 ultracentrifuge (Beckman-Coulter, Palo Alto, USA). The density gradient is measured by refractometric determination of the iodixanol concentration in the individual fractions. An estimate of the size of sedimented protein particles based on the position in the gradient at the end of the centrifugation takes place on the basis of a calibration using marker proteins of known size and shape, which were analyzed under identical centrifugation conditions on the gradient. […]

[2] = system: transgenic AD mice; conditions: oral administration with drinking water; cited from earlier work
[3] = system: Aβ oligomers; conditions: according to what is presently known; cited from earlier work
Chain of Aβ oligomers (P05067 672-711 limits assumed): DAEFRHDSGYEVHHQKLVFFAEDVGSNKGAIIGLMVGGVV

Row | Substance | quantity of Aβ oligomers in fractions 4 to 6 ([1]; 20 μM D3, 80 μM Aβ(1-42) pre-incubated 6 h) | proportion of large aggregates in fractions 11 to 14 ([1]; 20 μM D3, vs control without active ingredient) | cognitive capabilities of treated transgenic AD mice [2] | plaques in treated transgenic AD mice [2] | effect on toxic Aβ oligomers (conversion into non-toxic, non-amyloidogenic, ThT-negative amorphous aggregates) [3] | quantity of Aβ oligomers in fractions 4 to 6 ([1]; 10 μM D3D3, 80 μM Aβ(1-42) pre-incubated 6 h) | proportion of large aggregates in fractions 11 to 14 ([1]; 10 μM D3D3, vs control without active ingredient) | effect in eliminating oligomeric Aβ species compared with D3 ([1]; 10 μM D3D3 versus 20 μM D3)
1 | D3: D-enantiomeric peptide identified by mirror image phage display selection against predominantly monomeric Aβ(1-42); SEQ ID NO: 1 ([dR][dP][dR][dT][dR][dL][dH][dT][dH][dR][dN][dR]) | reduction in the quantity of oligomers | much greater | significantly improved cognitive capabilities | considerably fewer plaques | destroys the particularly toxic Aβ oligomers | – | – | –
2 | D3D3: tandem dimer of the D-peptide D3; SEQ ID NO: 2 ([dR][dP][dR][dT][dR][dL][dH][dT][dH][dR][dN][dR][dR][dP][dR][dT][dR][dL][dH][dT][dH][dR][dN][dR]) | – | – | – | – | – | reduction in the quantity of oligomers | much greater | much more pronounced effect
